# Measurements reported in the supplement of paper PMC7877785.
# ± gives the uncertainty stated by the source.
# Experiment: self-splicing fitness, log relative to wild type (ln ratio); higher = more splicing; Tetrahymena group I intron in knt gene, E. coli kanamycin selection, DiMSum; sequences stand for … in CUCUCU…GGAGGGAAAAGUUAUCAGGCAUGCACCUGGUAGCUAGUCUUUAAACCAAUAGAUUGCAUCGGUUUAAAAGGCAAGACCGUCAAAUUGCGGGAAAGGGGUCAACAGCCGUUCAGUACCAAGUCUCAGGGGAAACUUUGAGAUGGCCUUGCAAAGGGUAUGGUAAUAAGCUGACGGACAUGGUCCUAACCACGCAGCCAAGUCCUAAGUCAACAGAUCUUCUGUUGAUAUGGAUGCAGUUCACAGACUAAAUGUCGGUCGGGGAAGAUGUAUUCUUCUCAUAAGAUAUAGUCGGACCUCUCCUUAAUGGGAGCUAGCGGAUGAAGUGAUGCAACACUGGAGCCGCUGGGAACUAAUUUGUAUGCGAAAGUAUAUUGAUUAGUUUUGGAGUACUCGUGGUCG
# Procedure, shortened: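 A randomised library covering all eight P1ex-region intron nucleotides was built with the intron in the knt kanamycin-resistance gene on pET-22b(+) and held in E. coli BL21(DE3). Cells were grown overnight at 37°C or 30°C on LB agar, with or without 25 μg/mL kanamycin, plus 100 μg/mL carbenicillin, 50 μM IPTG and 0.2% rhamnose, and pooled colonies were amplicon-sequenced on an Illumina HiSeq 2500. DiMSum fitness is the error-weighted combination of wild-type-normalised replicate fold changes, kanamycin versus none.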
Sequence,self-splicing fitness (ln) (30 °C),self-splicing fitness (ln) (37 °C)
GUUCAGCAAUAUUACGCUGG,-4.05 ± 0.27,-1.53 ± 0.13
GUUCAGCAAUAUUACGCUGU,-3.2 ± 0.17,-1.65 ± 0.12
GUUCAGCAAUAUUACGGACU,-3.7 ± 0.14,-2.88 ± 0.18
GUUCAGCAAUAUUACGGAGA,–,-1.33 ± 0.29
GUUCAGCAAUAUUACGGCGC,-0.314 ± 0.094,0.633 ± 0.13
GUUCAGCAAUAUUACGGCUA,-0.564 ± 0.14,-0.232 ± 0.15
GUUCAGCAAUAUUACGGCUG,-3.59 ± 0.23,-2.38 ± 0.26
GUUCAGCAAUAUUACGGGGC,-2.68 ± 0.16,-2.78 ± 0.21
GUUCAGCAAUAUUACGUAAC,-0.462 ± 0.17,-0.994 ± 0.26
GUUCAGCAAUAUUACGUAUG,-2.03 ± 0.1,-0.968 ± 0.099
GUUCAGCAAUAUUACGUCUA,-1.14 ± 0.14,-0.132 ± 0.13
GUUCAGCAAUAUUACGUGAA,-1.32 ± 0.087,-0.784 ± 0.11
GUUCAGCAAUAUUACGUUCU,-0.734 ± 0.073,-0.74 ± 0.087
GUUCAGCAAUAUUACGUUGC,-3.13 ± 0.12,-1.7 ± 0.11
GUUGAGCAAUAUUACGAAUU,-3.8 ± 0.34,-1.24 ± 0.34
GUUGAGCAAUAUUACGACAG,-4.09 ± 0.36,-2.49 ± 0.28
GUUGAGCAAUAUUACGACGU,-0.544 ± 0.11,-0.345 ± 0.12
GUUGAGCAAUAUUACGAGGU,-3.2 ± 0.28,–
GUUGAGCAAUAUUACGAUGG,-3.31 ± 0.47,-2.7 ± 0.29
GUUGAGCAAUAUUACGAUGU,-2.43 ± 0.21,-1.03 ± 0.18
GUUGAGCAAUAUUACGGACG,–,-1.42 ± 0.29
GUUGAGCAAUAUUACGGAUA,-0.148 ± 0.24,-1.65 ± 0.45
GUUGAGCAAUAUUACGGCUU,-2.84 ± 0.28,-1.25 ± 0.37
GUUGAGCAAUAUUACGGGUU,-3.57 ± 0.27,-2 ± 0.21
GUUGAGCAAUAUUACGGUGG,-2.81 ± 0.33,-2.81 ± 0.48
GUUGAGCAAUAUUACGUCUG,-2.34 ± 0.44,-2.04 ± 0.4

Sequence,self-splicing fitness (ln) (30 °C),self-splicing fitness (ln) (37 °C)
GUUGAGCAAUAUUACGUUAG,-4.58 ± 0.41,-2.82 ± 0.43
GUUGAGCAAUAUUACGUUGA,-3.13 ± 0.29,-2.9 ± 0.33
GUUUAGCAAUAUUACGAAUA,-1.58 ± 0.43,-0.203 ± 0.3
GUUUAGCAAUAUUACGACAU,-0.224 ± 0.014,0.063 ± 0.033
GUUUAGCAAUAUUACGCAGU,-2.92 ± 0.17,-2.05 ± 0.22
GUUUAGCAAUAUUACGCGAU,-3.12 ± 0.4,-2.42 ± 0.42
GUUUAGCAAUAUUACGCGCU,-1.52 ± 0.29,-0.397 ± 0.44
GUUUAGCAAUAUUACGCGUA,-0.947 ± 0.14,-0.606 ± 0.15
GUUUAGCAAUAUUACGGUAU,-2.05 ± 0.14,0.286 ± 0.15
GUUUAGCAAUAUUACGGUCU,-1.44 ± 0.12,-1.05 ± 0.13
GUUUAGCAAUAUUACGGUGU,-1.95 ± 0.14,-1.38 ± 0.13
GUUUAGCAAUAUUACGUAAU,-1.15 ± 0.1,0.127 ± 0.13
GUUUAGCAAUAUUACGUGAG,-0.583 ± 0.062,-0.124 ± 0.08
GUUUAGCAAUAUUACGUGCG,-0.649 ± 0.11,-0.5 ± 0.11
GUUUAGCAAUAUUACGUGUC,-0.806 ± 0.17,-1.76 ± 0.17
GUUUAGCAAUAUUACGUUCA,-0.239 ± 0.15,-0.156 ± 0.13
UAAAAGCAAUAUUACGAAGG,-2.61 ± 0.21,-1.6 ± 0.23
UAAAAGCAAUAUUACGACAG,-0.555 ± 0.057,-0.173 ± 0.074
UAAAAGCAAUAUUACGAGAA,-2.18 ± 0.24,-0.995 ± 0.16
UAAAAGCAAUAUUACGAGAG,-3.35 ± 0.19,-1.6 ± 0.13
UAAAAGCAAUAUUACGAGUU,-2.99 ± 0.16,-1.91 ± 0.14
UAAAAGCAAUAUUACGAUGA,-0.245 ± 0.085,0.0881 ± 0.087
UAAAAGCAAUAUUACGAUGG,-0.953 ± 0.087,-0.592 ± 0.11
UAAAAGCAAUAUUACGCACC,-2.48 ± 0.11,-1.49 ± 0.12
UAAAAGCAAUAUUACGCACG,-0.983 ± 0.079,-0.0988 ± 0.1
UAAAAGCAAUAUUACGCAGA,-2.11 ± 0.093,-1.17 ± 0.086

Sequence,self-splicing fitness (ln) (30 °C),self-splicing fitness (ln) (37 °C)
UAAAAGCAAUAUUACGCGUG,-0.88 ± 0.049,-0.0179 ± 0.066
UAAAAGCAAUAUUACGCUAA,-1.86 ± 0.14,-0.863 ± 0.13
UAAAAGCAAUAUUACGCUAC,-3.07 ± 0.24,–
UAAAAGCAAUAUUACGGACA,-0.712 ± 0.082,0.302 ± 0.11
UAAAAGCAAUAUUACGGCCU,-0.961 ± 0.1,-0.4 ± 0.12
UAAAAGCAAUAUUACGGGAC,-3.16 ± 0.13,-2.47 ± 0.19
UAAAAGCAAUAUUACGGGUA,-0.918 ± 0.09,-0.192 ± 0.095
UAAAAGCAAUAUUACGGUAC,-3.76 ± 0.16,-1.42 ± 0.16
UAAAAGCAAUAUUACGGUAU,-3.74 ± 0.23,-1.85 ± 0.21
UAAAAGCAAUAUUACGUACA,-1.05 ± 0.1,-0.00957 ± 0.14
UAAAAGCAAUAUUACGUUUU,-3.26 ± 0.13,-2.82 ± 0.16
UAACAGCAAUAUUACGAAGA,-2.48 ± 0.14,-1.33 ± 0.11
UAACAGCAAUAUUACGACAG,-0.741 ± 0.052,-0.435 ± 0.073
UAACAGCAAUAUUACGACUG,-0.343 ± 0.077,0.429 ± 0.099
UAACAGCAAUAUUACGAGAC,-4.18 ± 0.26,-2.78 ± 0.29
UAACAGCAAUAUUACGCACA,-0.339 ± 0.069,0.114 ± 0.099
UAACAGCAAUAUUACGCACG,-1.17 ± 0.058,-0.421 ± 0.072
UAACAGCAAUAUUACGCGGA,-2.12 ± 0.11,0.0542 ± 0.076
UAACAGCAAUAUUACGCGUG,-0.718 ± 0.041,0.173 ± 0.055
UAACAGCAAUAUUACGGCCU,-1.21 ± 0.13,-0.33 ± 0.15
UAACAGCAAUAUUACGGGCC,-3.47 ± 0.26,-2.98 ± 0.26
UAACAGCAAUAUUACGGGGU,-4.16 ± 0.14,-2.2 ± 0.12
UAACAGCAAUAUUACGGGUU,-3.91 ± 0.15,-3.58 ± 0.19
UAACAGCAAUAUUACGGUUA,-1.59 ± 0.1,-0.652 ± 0.096
